Reference: patent US20110046068A1 (MEDICAL RESEARCH COUNCIL, published 2011)
Blank lines part the entries; values can stand above or below the binder they belong to. Non-standard residues stand in square brackets, D forms with d. No end group written: not given here.

Experiments:
human gpr-54 receptor [1] = target: T1, human gpr-54 receptor (human, UniProt Q969F8 1-398); experiment: whole-cell competition binding against 125I-kisspeptin, CHO cells stably transfected with hGPR54 (CPM) [188]
T1 construct: whole, on cells; CHO cells stably expressing the human gpr-54 receptor came from Prof; G. Vassart; also called kisspeptin receptor; AXOR12
Experimental: (§1) Cell monolayers were placed on ice and exposed to 0.5 mls peptide (10 pM-1 uM); the cells were then incubated at 4° C. for 4 hr. After 4 hrs, cells were washed twice with ice cold Dulbecco's phosphate buffered saline (DPBS; with Calcium and Magnesium) and then 0.5 mls 0.1M Sodium Hydroxide (NaOH) were added to cells for 20 minutes, shaking to lyse cells. Lysates were transferred to plastic tubes and bound radioactivity counted on the gamma counter for 60 seconds.

human gpr-54 receptor [2] = target: T1, human gpr-54 receptor; experiment: cell-based or functional assay
human gpr-54 receptor [3] = target: T1, human gpr-54 receptor; experiment: cell-based or functional assay; remark: listed apart in the source
human gpr-54 receptor [4] = target: T1, human gpr-54 receptor; experiment: cell-based or functional assay; remark: listed apart in the source
human gpr-54 receptor [5] = target: T1, human gpr-54 receptor; experiment: whole-cell competition binding against 125I-kisspeptin, CHO cells stably transfected with hGPR54 (CPM) [187]
Experimental: as §1

human gpr-54 receptor [6] = target: T1, human gpr-54 receptor; experiment: cell-based or functional assay; remark: listed apart in the source
human gpr-54 receptor [7] = target: T1, human gpr-54 receptor; experiment: cell-based or functional assay; remark: listed apart in the source
human gpr-54 receptor [8] = target: T1, human gpr-54 receptor; experiment: whole-cell competition binding against 125I-kisspeptin, CHO cells stably transfected with GPR54 (CPM) [234]
Experimental: as §1

human gpr-54 receptor [9] = target: T1, human gpr-54 receptor; experiment: competition of I125-labelled kisspeptin-10 on gpr-54 cells (CPM x 10^3); the legend calls the number an affinity
human gpr-54 receptor [10] = target: T1, human gpr-54 receptor; experiment: whole-cell competition binding against 125I-kisspeptin, CHO cells stably transfected with GPR54 (CPM); the fall of the curve lies between Total and -10 LogM [200]
Experimental: as §1

human gpr-54 receptor [11] = target: T1, human gpr-54 receptor; experiment: cell-based or functional assay; remark: listed apart in the source

T1 sequence (Q969F8 whole entry): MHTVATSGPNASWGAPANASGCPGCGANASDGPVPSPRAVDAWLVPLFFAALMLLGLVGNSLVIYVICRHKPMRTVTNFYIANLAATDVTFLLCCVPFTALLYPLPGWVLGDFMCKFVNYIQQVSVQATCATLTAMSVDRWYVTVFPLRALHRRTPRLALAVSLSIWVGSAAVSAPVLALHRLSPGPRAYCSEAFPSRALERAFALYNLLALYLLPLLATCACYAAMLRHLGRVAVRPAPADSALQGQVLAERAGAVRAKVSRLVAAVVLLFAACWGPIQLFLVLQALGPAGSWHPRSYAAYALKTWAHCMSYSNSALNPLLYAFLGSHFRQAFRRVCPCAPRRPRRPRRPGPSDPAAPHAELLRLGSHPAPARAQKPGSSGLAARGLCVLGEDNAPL

IC50 (human gpr-54 receptor [1]): 143 nM
IP stimulation (IC50), peptide alone (human gpr-54 receptor [2]): 125 nM
Inhibition of IP stimulation by 10nM Agonist: % Inhibition of Max (human gpr-54 receptor [2]): 74%
IP competition with 10nM kisspeptin-10: IC50 [188] (human gpr-54 receptor [3]): < 100 pM
IP dose response, peptide alone: EC50 (unlabelled number beside rising curve) [188] (human gpr-54 receptor [3]): 92.3 nM
B1: 188 (peptide)
peptide: Ac-FGLRF-NH2
notes: kisspeptin-10 analogue; also called Peptide 188; acFGLRF

IP dose response, peptide alone: EC50 (unlabelled number beside rising curve) [187] (human gpr-54 receptor [4]): 72.1 nM
IP stimulation (IC50), peptide alone (human gpr-54 receptor [2]): 40 nM
Inhibition of IP stimulation by 10nM Agonist: % Inhibition of Max (human gpr-54 receptor [2]): 36%
IC50 (human gpr-54 receptor [5]): 211 nM
B2: 187 (peptide)
peptide: YNWNSFGLRW-NH2
notes: kisspeptin-10 analogue

Inhibition of IP stimulation by 10nM Agonist: IC50 (human gpr-54 receptor [2]): 70 nM
IC50 of inhibition of 10 nM kisspeptin-10 stimulation of IP (human gpr-54 receptor [6]): 7 nM
IC50 of inhibition of kisspeptin stimulation of IP (human gpr-54 receptor [6]): < 10 nM
IP competition with 10nM kisspeptin-10: IC50 [234] (human gpr-54 receptor [7]): 70 nM
IC50 (human gpr-54 receptor [8]): 2.79 nM
IC50 (human gpr-54 receptor [9]): 2.8 nM
B3: Peptide 234 (peptide)
peptide: [dA]NWNGFG[dW]RF-NH2

Inhibition of IP stimulation by 10nM Agonist: % Inhibition of Max (human gpr-54 receptor [2]): 63%
Inhibition of IP stimulation by 10nM Agonist: IC50 (human gpr-54 receptor [2]): 300 nM
IC50 (human gpr-54 receptor [10]): 2.49 pM
IP competition with 10nM kisspeptin-10: IC50 [200] (human gpr-54 receptor [11]): 300 nM
B4: 200 (peptide)
peptide: Ac-FGL[dR]W-NH2
modifications: not fully specified
notes: kisspeptin-10 analogue; also called acFGL[(D)-R]W
